According to patent US20250059527A1 (UNIVERSITY OF DUNDEE, published 2025):

Molecular target: α-synuclein (human, UniProt P37840 1-140)
Assay: immunofluorescence microscopy, co-localisation in SK-MEL13 cells
Experimental: For immunofluorescence imaging, cells were first seeded onto 16 mm diameter circular sterile coverslips in 12-well culture plates and left to adhere overnight. All coverslips were sterilised with 100% (v/v) ethanol prior to use and allowed to dry. Cells were washed twice in PBS before being fixed in 4% (w/v) paraformaldehyde (diluted in PBS) at room temperature for 10 minutes. PFA was removed and the coverslips were washed twice in PBS. Coverslips were then permeabilised with 0.2% (v/v) NP40 in PBS for 3 min. Cells were then blocked by washing twice and a 15-minute incubation in 1% (w/v) BSA/PBS. Coverslips were then incubated for 1.5 hr at room temperature with a 1:100 dilution of anti-α-synuclein antibody (610786, BD Biosciences) in a humidified chamber. They were then washed 3 times (for 10 minutes each) in 0.2% (w/v) BSA/PBS before being incubated with goat anti-mouse-IgG alexa-fluor 594 conjugated secondary antibody (A-11005, Thermo Fisher Scientific) at a dilution of 1:500 for 1 hour at 37° C., protected from light. Coverslips were then washed three times in 0.2% (w/v) BSA/PBS for 10 minutes each with the first wash containing a 1:15,000 dilution of DAPI. […]
The interaction of NbSyn87 and alpha-synuclein was determined in extracts and cells, with alpha-synuclein knockout cells included as controls for a clean alpha-synuclein IP. […]

binding result: binds
B1: GFP-NbSYN87 (VHH)
VHH: QVQLQESGGGSVQTGGSLRLSCVASGYSGYMAWFRQAPGKEREGIAAIYRGDKITYYAHSVQGRFTISQANAKNTVYLLMNSLKPEDTAIYYCAARRVVADSPLLSKTYAYWGQGTQVTVSS
notes: Transiently transfected into SK-MEL13 cells; also called GFP-tagged NbSyn87; not shown: GFP tag
